Experiment [1] concerns the target T1, human CXC Chemokine Receptor 3 (CXCR3) (human, UniProt P49682 1-368).
T1 construct: also called IP-10/Mig receptor; IP-10/MigR
T1 sequence: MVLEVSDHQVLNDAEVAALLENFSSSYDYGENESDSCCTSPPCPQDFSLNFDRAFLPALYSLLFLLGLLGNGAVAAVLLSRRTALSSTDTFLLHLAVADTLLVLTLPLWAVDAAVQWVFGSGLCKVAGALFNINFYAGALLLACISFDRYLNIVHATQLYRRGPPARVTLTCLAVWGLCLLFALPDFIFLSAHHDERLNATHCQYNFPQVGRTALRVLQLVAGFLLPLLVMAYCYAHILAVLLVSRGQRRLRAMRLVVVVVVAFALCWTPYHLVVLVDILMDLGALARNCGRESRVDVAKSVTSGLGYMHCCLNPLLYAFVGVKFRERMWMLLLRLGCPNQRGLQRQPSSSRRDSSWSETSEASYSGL
The experiment is described as follows: cell-based or functional assay.

Experiment [2] has as its target T1, human CXC Chemokine Receptor 3 (CXCR3). The experiment in a line: inhibition of 125I-IP-10 binding to activated T cells.
The target is the same in experiment [3]. The experiment in a line: inhibition of 0.05 nM 125I-IP-10 binding to activated T cells (CD3 blasts).
The target is the same in experiment [4]. The experiment in a line: summing-up of the radioligand binding studies; Mig itself was tested only as cold competitor of 125I-IP-10.

The values below come from patent US20100061983A1 (published 2010).

“MIP-1β (from UniProt P13236 24-92) (ligand)” showed a [Ca2+]i changes in IP-10/MigR transfectants (no response up to the concentration given) in experiment [1] of over 100 nM.

The molecule “MCP-1 (monocyte chemotactic protein-1) (from UniProt P13500 24-99) (ligand)” came in with a [Ca2+]i changes in IP-10/MigR transfectants (no response up to the concentration given) in experiment [1] of over 100 nM.

On to “MIP-1α (macrophage inflammatory protein-1α) (from UniProt P10147 24-92) (ligand)”, for which the [Ca2+]i changes in IP-10/MigR transfectants (no response up to the concentration given) in experiment [1] was over 100 nM.

On to “GCP-2 (granulocyte chemotactic protein-2) (from UniProt P80162 38-114) (ligand)”, for which, in experiment [1], the [Ca2+]i changes in IP-10/MigR transfectants (no response up to the concentration given) is over 100 nM.

In experiment [1], “eotaxin (from UniProt P51671 24-97) (ligand)” showed a [Ca2+]i changes in IP-10/MigR transfectants (no response up to the concentration given) of over 100 nM.

For “IL-8 (interleukin 8) (from UniProt P10145 28-99) (ligand)”, the [Ca2+]i changes in IP-10/MigR transfectants (no response up to the concentration given) in experiment [1] was over 100 nM.

Molecule “MCP-4 (from UniProt Q99616 24-98) (ligand)” displayed a [Ca2+]i changes in IP-10/MigR transfectants (no response up to the concentration given) in experiment [1] of over 100 nM.

Regarding “GROα (from UniProt P09341 35-107) (ligand)”, in experiment [1], the [Ca2+]i changes in IP-10/MigR transfectants (no response up to the concentration given) is over 100 nM.

On to “RANTES (regulated on activation, normal T cell expressed and secreted) (from UniProt P13501 24-91) (ligand)”, for which the [Ca2+]i changes in IP-10/MigR transfectants (no response up to the concentration given) in experiment [1] was over 100 nM.

In experiment [1], “murine anti-CXCR3 monoclonal antibody 1C6” showed an IC50, inhibition of IP-10 (12.5 nM) induced chemotaxis of activated T cells of 0.8 µg/mL; an IC50, inhibition of IP-10 mediated chemotaxis of activated T cells of 856 ng/mL; a Mig (2 nM) induced [Ca2+]i in activated T cells (no effect up to the concentration given) of over 50 µg/mL; an antibody concentration giving 100% inhibition of IP-10 induced chemotaxis of activated T cells of 2 to 5 µg/mL. The molecule further registered an antibody concentration giving complete inhibition of 125I-IP-10 binding in experiment [2] of 1 to 10 µg/mL. For the same molecule, the IC50 in experiment [3] came to 0.16 µg/mL.

As for “ENA78 (epithelial-derived neutrophil-activating peptide 78) (from UniProt P42830 37-114) (ligand)”, in experiment [1], the [Ca2+]i changes in IP-10/MigR transfectants (no response up to the concentration given) is over 100 nM.

“MCP-3 (from UniProt P80098 24-99) (ligand)” had a [Ca2+]i changes in IP-10/MigR transfectants (no response up to the concentration given) in experiment [1] of over 100 nM.

For “MCP-2 (from UniProt P80075 24-99) (ligand)”, in experiment [1], the [Ca2+]i changes in IP-10/MigR transfectants (no response up to the concentration given) was over 100 nM.

Turning to “lymphotactin (from UniProt P47992 22-114) (ligand)”, the [Ca2+]i changes in IP-10/MigR transfectants (no response up to the concentration given) in experiment [1] is over 100 nM.

B1: I309 (ligand, human, UniProt P22362 24-96, looked up)
chain: KSMQVPFSRCCFSFAEQEIPLRAILCYRNTSSICSNEGLIFKLKRGKEACALDTVGWVQRHRKMLRHCPSKRK
B1: in experiment [1], the [Ca2+]i changes in IP-10/MigR transfectants (no response up to the concentration given) was over 100 nM.

B2: NAP-2 (neutrophil-activating protein-2) (ligand, human, UniProt P02775 59-128, looked up)
chain: AELRCMCIKTTSGIHPKNIQSLEVIGKGTHCNQVEVIATLKDGRKICLDPDAPRIKKIVQKKLAGDESAD
Regarding B2, in experiment [1], the [Ca2+]i changes in IP-10/MigR transfectants (no response up to the concentration given) was over 100 nM.

B3: Mig (monokine induced by gamma interferon) (ligand, human, UniProt Q07325 23-125, looked up)
chain: TPVVRKGRCSCISTNQGTIHLQSLKDLKQFAPSPSCEKIEIIATLKNGVQTCLNPDSADVKELIKKWEKQVSQKKKQKNGKKHQKKKVLKVRKSQRSRQKKTT
notes: also called cold Mig
As for B3, the Kd in experiment [4] lay in the range of 0.15 to 0.6 nM.

B4: PF4 (platelet factor 4) (ligand, human, UniProt P02776 32-101, looked up)
chain: EAEEDGDLQCLCVKTTSQVRPRHITSLEVIKAGPHCPTAQLIATLKNGRKICLDLQAPLYKKIIKKLLES
Turning to B4, in experiment [1], the [Ca2+]i changes in IP-10/MigR transfectants (no response up to the concentration given) was over 100 nM.
